Read-outs that look alike come from different tables or passages of the source.
T1: 4H3865-AA
T1 chain: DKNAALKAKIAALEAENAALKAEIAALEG

T2: 4H3395-AA
T2 chain: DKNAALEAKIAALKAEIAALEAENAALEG

T3: 4H2698-AA
T3 chain: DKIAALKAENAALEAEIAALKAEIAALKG

T4: 4H570-AA
T4 chain: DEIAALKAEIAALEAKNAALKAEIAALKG

T5: 4H3381-AA
T5 chain: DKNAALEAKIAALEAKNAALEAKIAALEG

T6: 4H697-AA
T6 chain: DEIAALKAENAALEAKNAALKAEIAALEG

T7: 4H3590-AA
T7 chain: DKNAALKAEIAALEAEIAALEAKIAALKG

T8: 4H2274-AA
T8 chain: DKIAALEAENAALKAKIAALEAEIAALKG

T9: 4H3410-AA
T9 chain: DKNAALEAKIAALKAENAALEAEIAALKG

T10: 4H797-AA
T10 chain: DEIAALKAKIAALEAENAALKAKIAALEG

T11: 4H2473-AA
T11 chain: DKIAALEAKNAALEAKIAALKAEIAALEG

T12: 4H891-AA
T12 chain: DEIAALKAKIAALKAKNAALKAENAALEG

T13: 4H310-AA
T13 chain: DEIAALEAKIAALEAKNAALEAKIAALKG

T14: 4H458-AA
T14 chain: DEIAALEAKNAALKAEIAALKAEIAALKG

T15: 4H94-AA
T15 chain: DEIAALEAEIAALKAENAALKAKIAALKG

T16: 4H2253-AA
T16 chain: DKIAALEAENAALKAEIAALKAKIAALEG

T17: 4H2389-AA
T17 chain: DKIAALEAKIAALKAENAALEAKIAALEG

T18: 4H384-AA
T18 chain: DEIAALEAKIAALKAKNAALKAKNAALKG

T19: 4H3120-AA
T19 chain: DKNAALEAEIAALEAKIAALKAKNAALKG

T20: 4H3016-AA
T20 chain: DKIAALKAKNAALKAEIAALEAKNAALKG

T21: 4H2611-AA
T21 chain: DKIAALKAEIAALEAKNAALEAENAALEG

T22: 4H2725-AA
T22 chain: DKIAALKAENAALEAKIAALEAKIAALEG

T23: 4H2438-AA
T23 chain: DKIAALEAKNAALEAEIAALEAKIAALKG

T24: 4H2330-AA
T24 chain: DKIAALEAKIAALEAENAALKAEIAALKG

T25: 4H3697-AA
T25 chain: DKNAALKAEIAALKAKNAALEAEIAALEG

T26: 4H2649-AA
T26 chain: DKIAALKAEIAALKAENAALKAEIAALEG

T27: 4H3753-AA
T27 chain: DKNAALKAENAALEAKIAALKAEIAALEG

T28: 4H536-AA
T28 chain: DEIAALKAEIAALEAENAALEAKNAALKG

T29: 4H909-AA
T29 chain: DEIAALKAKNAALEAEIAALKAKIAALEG

T30: 4H930-AA
T30 chain: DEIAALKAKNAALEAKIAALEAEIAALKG

T31: 4H710-AA
T31 chain: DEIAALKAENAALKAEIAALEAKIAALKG

T32: 4H3718-AA
T32 chain: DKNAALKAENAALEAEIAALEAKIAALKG

T33: 4H3130-AA
T33 chain: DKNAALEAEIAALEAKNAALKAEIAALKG

T34: 4H3606-AA
T34 chain: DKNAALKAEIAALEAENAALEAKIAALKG

T35: 4H982-AA
T35 chain: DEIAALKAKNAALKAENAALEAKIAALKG

T36: 4H3009-AA
T36 chain: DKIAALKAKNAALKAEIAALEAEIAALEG

T37: 4H2774-AA
T37 chain: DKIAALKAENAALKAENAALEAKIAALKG

T38: 4H249-AA
T38 chain: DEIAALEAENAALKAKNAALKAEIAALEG


What was measured:
Assay in all cases: two-hybrid library CCmax;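 further: natural log of median RNA to DNA barcode read ratio; higher means stronger binding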
[1] = target: T1, 4H3865-AA; conditions: mean of both orientations
[2] = target: T2, 4H3395-AA; conditions: mean of both orientations
[3] = target: T3, 4H2698-AA; conditions: mean of both orientations
[4] = target: T4, 4H570-AA; conditions: mean of both orientations
[5] = target: T5, 4H3381-AA; conditions: mean of both orientations
[6] = target: T6, 4H697-AA; conditions: mean of both orientations
[7] = target: T7, 4H3590-AA; conditions: mean of both orientations
[8] = target: T8, 4H2274-AA
[9] = target: T9, 4H3410-AA; conditions: mean of both orientations
[10] = target: T10, 4H797-AA; conditions: mean of both orientations
[11] = target: T11, 4H2473-AA; conditions: mean of both orientations
[12] = target: T12, 4H891-AA; conditions: mean of both orientations
[13] = target: T13, 4H310-AA
[14] = target: T14, 4H458-AA; conditions: mean of both orientations
[15] = target: T15, 4H94-AA; conditions: mean of both orientations
[16] = target: T16, 4H2253-AA; conditions: mean of both orientations
[17] = target: T17, 4H2389-AA; conditions: mean of both orientations
[18] = target: T18, 4H384-AA; conditions: mean of both orientations
[19] = target: T19, 4H3120-AA; conditions: mean of both orientations
[20] = target: T20, 4H3016-AA; conditions: mean of both orientations
[21] = target: T21, 4H2611-AA; conditions: mean of both orientations
[22] = target: T22, 4H2725-AA; conditions: mean of both orientations
[23] = target: T23, 4H2438-AA; conditions: mean of both orientations
[24] = target: T24, 4H2330-AA; conditions: mean of both orientations
[25] = target: T25, 4H3697-AA; conditions: mean of both orientations
[26] = target: T26, 4H2649-AA; conditions: mean of both orientations
[27] = target: T27, 4H3753-AA; conditions: mean of both orientations
[28] = target: T28, 4H536-AA; conditions: mean of both orientations
[29] = target: T29, 4H909-AA; conditions: mean of both orientations
[30] = target: T30, 4H930-AA; conditions: mean of both orientations
[31] = target: T31, 4H710-AA; conditions: mean of both orientations
[32] = target: T32, 4H3718-AA; conditions: mean of both orientations
[33] = target: T33, 4H3130-AA; conditions: mean of both orientations
[34] = target: T34, 4H3606-AA; conditions: mean of both orientations
[35] = target: T35, 4H982-AA; conditions: mean of both orientations
[36] = target: T36, 4H3009-AA; conditions: mean of both orientations
[37] = target: T37, 4H2774-AA; conditions: mean of both orientations
[38] = target: T38, 4H249-AA; conditions: mean of both orientations

Row | interaction score [1] | interaction score [2] | interaction score [3] | interaction score [4] | interaction score [5] | interaction score [7] | interaction score [9] | interaction score [10] | interaction score [11] | interaction score [12] | interaction score [14] | interaction score [15] | interaction score [16] | interaction score [17] | interaction score [19] | interaction score [20] | interaction score [21] | interaction score [22] | interaction score [23] | interaction score [24] | also measured | Binder
1 | 0.444 | -1.76 | -1.05 | -0.319 | -0.986 | 0.23 | 0.438 | -1.29 | -2.06 | -1.23 | -1.34 | -1.72 | -1.49 | -0.327 | -1.55 | 0.156 | -0.194 | -1.15 | -0.434 | -1.84 | interaction score [6]: -1.71; interaction score [8]: -1.11; interaction score [13]: -1.4; interaction score [18]: -1.72; interaction score [25]: 2.08; interaction score [26]: 0.913; interaction score [27]: -2.1; interaction score [28]: -1.1; interaction score [29]: -1.05; interaction score [30]: -1.1; interaction score [31]: -1.52; interaction score [32]: -1.33; interaction score [33]: 0.0677; interaction score [34]: 1.65; interaction score [35]: -1.22; interaction score [36]: -0.415 | DENAALEAEIAALKAKNAALEAKIAALKG [4H1142-AA]
2 | -0.626 | -1.69 | -1.09 | 0.298 | -1.5 | -1.51 | -0.738 | -1.41 | -1.45 | -1.64 | -1.65 | 1.29 | -1.52 | -1.4 | -1.91 | -1.84 | -1.57 | -1.77 | -1.65 | -1.37 | interaction score ([8]; mean of both orientations): -1.5; interaction score [37]: -1.46; interaction score ([13]; mean of both orientations): -1.28; interaction score [25]: -1.21; interaction score [26]: 0.931; interaction score [27]: -1.54; interaction score [28]: -1.73; interaction score [29]: -1.36; interaction score [30]: -1.25; interaction score [31]: -1.04; interaction score [33]: -0.637; interaction score [36]: -1.64; interaction score [38]: -1.39 | DENAALKAEIAALKAENAALKAEIAALKG [4H1626-AA]
3 | 2.2 | -0.984 | -0.391 | 0.408 | -1.23 | -0.24 | 1.9 | 1.92 | -1.02 | -1.69 | -1.3 | -0.926 | -0.556 | 1.17 | -1.24 | 0.425 | -1.46 | -1.12 | -0.264 | 1.35 | interaction score [6]: -1.05; interaction score ([8]; mean of both orientations): -1.15; interaction score ([13]; mean of both orientations): -0.748; interaction score [18]: -1.55; interaction score [25]: 0.439; interaction score [26]: 1.94; interaction score [27]: -1.37; interaction score [28]: -1.27; interaction score [29]: -1.21; interaction score [30]: -1.4; interaction score [31]: -0.684; interaction score [32]: -1.04; interaction score [33]: 0.822; interaction score [34]: 2.23; interaction score [35]: -1.4; interaction score [36]: 0.0502 | DENAALEAKIAALEAENAALKAKIAALKG [4H1310-AA]
